Measured values as given in patent publication US20230051304A1 (Regeneron, published 2023).
Substitutions are numbered along the chain they refer to. Where two headings read alike, the source gives them in different places. One block for each binder: values may come before it.

Tests used:
[1] = target: T1, murine IL12 receptor complex (IL12Rβ1 and IL12Rβ2) (mouse, UniProt Q60837 20-738; P97378 24-874); assay: cell-based or functional assay
[2] = target: T1, murine IL12 receptor complex (IL12Rβ1 …); assay: cell-based or functional assay; remark: listed apart in the source

T1 sequence (Q60837 20-738, chain 1 of 2): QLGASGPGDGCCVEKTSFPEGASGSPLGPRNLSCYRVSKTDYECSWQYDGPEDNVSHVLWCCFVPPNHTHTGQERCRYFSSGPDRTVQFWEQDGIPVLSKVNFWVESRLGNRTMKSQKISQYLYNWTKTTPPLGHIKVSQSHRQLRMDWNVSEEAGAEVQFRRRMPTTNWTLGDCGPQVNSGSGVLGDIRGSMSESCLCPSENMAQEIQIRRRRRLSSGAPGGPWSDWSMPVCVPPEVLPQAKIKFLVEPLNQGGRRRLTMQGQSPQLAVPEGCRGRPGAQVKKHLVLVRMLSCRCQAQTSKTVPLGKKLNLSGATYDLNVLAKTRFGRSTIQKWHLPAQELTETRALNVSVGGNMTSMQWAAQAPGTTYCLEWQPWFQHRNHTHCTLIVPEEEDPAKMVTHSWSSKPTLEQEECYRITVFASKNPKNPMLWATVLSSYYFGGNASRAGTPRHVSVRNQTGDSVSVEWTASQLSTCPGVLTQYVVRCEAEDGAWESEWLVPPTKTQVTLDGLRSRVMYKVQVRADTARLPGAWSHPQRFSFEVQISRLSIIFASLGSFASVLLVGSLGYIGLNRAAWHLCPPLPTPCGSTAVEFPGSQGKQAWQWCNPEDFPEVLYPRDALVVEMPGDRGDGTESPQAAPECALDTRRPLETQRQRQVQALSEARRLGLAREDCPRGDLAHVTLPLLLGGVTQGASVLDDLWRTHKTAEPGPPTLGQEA
T1 sequence (P97378 24-874, chain 2 of 2): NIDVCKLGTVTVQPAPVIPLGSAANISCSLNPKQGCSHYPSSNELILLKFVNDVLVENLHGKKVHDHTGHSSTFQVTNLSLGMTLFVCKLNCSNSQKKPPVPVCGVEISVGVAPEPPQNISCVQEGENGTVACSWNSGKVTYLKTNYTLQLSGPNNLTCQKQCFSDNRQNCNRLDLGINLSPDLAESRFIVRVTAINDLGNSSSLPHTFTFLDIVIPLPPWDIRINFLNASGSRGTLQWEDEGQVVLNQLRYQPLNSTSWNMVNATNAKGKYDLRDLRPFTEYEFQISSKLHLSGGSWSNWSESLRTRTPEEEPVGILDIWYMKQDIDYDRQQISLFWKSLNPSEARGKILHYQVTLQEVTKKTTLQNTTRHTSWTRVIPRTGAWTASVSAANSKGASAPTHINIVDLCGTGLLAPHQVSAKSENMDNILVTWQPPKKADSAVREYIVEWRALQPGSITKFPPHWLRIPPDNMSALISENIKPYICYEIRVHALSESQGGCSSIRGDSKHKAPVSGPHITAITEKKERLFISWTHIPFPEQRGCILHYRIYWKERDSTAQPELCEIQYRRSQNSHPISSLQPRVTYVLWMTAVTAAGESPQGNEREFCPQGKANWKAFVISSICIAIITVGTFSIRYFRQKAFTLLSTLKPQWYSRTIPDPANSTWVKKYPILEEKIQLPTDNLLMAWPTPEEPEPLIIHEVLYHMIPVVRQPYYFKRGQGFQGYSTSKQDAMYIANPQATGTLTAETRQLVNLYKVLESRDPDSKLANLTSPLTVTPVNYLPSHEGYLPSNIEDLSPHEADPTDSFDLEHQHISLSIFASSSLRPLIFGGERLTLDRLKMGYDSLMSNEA

B1: Bivalent: Fc-IL12*(p40*-p35*) (Fc fusion)
chain: ESKYGPPCPPCPAPPVAGPSVFLFPPKPKDTLMISRTPEVTCVVVDVSQEDPEVQFNWYVDGVEVHNAKTKPREEQFNSTYRVVSVLTVLHQDWLNGKEYKCKVSNKGLPSSIEKTISKAKGQPREPQVYTLPPSQEEMTKNQVSLTCLVKGFYPSDIAVEWESNGQPENNYKTTPPVLDSDGSFFLYSRLTVDKSRWQEGNVFSCSVMHEALHNHYTQKSLSLSLGKGGGGSGGGGSGGGGSMWELEKDVYVVEVDWTPDAPGETVNLTCDTPEEDDITWTSDQRHGVIGSGKTLTITVKEFLDAGQYTCHKGGETLSHSHLLLHKKENGIWSTEILKNFKNKTFLKCEAPNYSGRFTCSWLVQRNMDLKFNIKSSSSSPDSRAVTCGMASLSAEKVTLDQRDYEKYSVSCQEDVTSPTAEETLPIELALEARQQNKYENYSTSFFIRDIIKPDPPKNLQMKPLKNSQVEVSWEYPDSWSTPHSYFSLKFFVRIQRKKEKMKETEEGCNQKGAFLVEKTSTEVQCKGGNVCVQAQDRYYNSSCSKWACVPCRVRSGGGGSGGGGSGGGGSRVIPVSGPARCLSQSRNLLKTTDDMVKTAREKLKHYSCTAEDIDHEDITRDQTSTLKTCLPLELHKNESSLATRETSSTTRGSCLPPQKTSLMMTLCLGSIYEDLKMYQTEFQAINAALQNHNHQQIILDKGMLVAIDELMQSLNHNGETLRQKPPVGEADPYRVKMKLCILLHAFSTRVVTINRVMGYLSSA
- EC50 (M); STAT3-Luc reporter, CTLL2/STAT3-Luc cells [1]: 1.8e-11 M
- Fold induction at 6.25 nM; STAT3-Luc reporter, CTLL2/STAT3-Luc cells [1]: 5.96 fold
- Max fold induction; STAT3-Luc reporter, CTLL2/STAT3-Luc cells [1]: 7.83 fold

B2: IL12(mutein 13)-Fc (Fc fusion)
chain: NGIWSTEILKNFKNKTFLKCEAPNYSGRFTCSWLVQRNMDLKFNIKSSSSSPDSRAVTCGMASLSAEKVTLDQRDYEKYSVSCQEDVTCPTAEETLPIELALEARQQNKYENYSTSFFIRDIIKPDPPKNLQMKPLKNSQVEVSWEYPDSWSTPHSYFSLKFFVRIQRKKEKMKETEEGCNQKGAFLVEKTSTEVQCKGGNVCVQAQDRYYNSSCSKWACVPCRVRSGGGGSGGGGSGGGGSRVIPVSGPARCLSQSRNLLKTTDDMVKTAREKLKHYSCTAEDIDHEDITRDQTSTLKTCLPLELHKNESCLATRETSSTTRGSCLPPQKTSLMMTLCLGSIYEDLKMYQTEFQAINAALQNHNHQQIILDKGMLVAIDELMQSLNHNGETLRQKPPVGEADPYRVKMKLCILLHAFSTRVVTINRVMGYLSSAGGGGSGGGGSGGGGSESKYGPPCPPCPAPPVAGPSVFLFPPKPKDTLMISRTPEVTCVVVDVSQEDPEVQFNWYVDGVEVHNAKTKPREEQFNSTYRVVSVLTVLHQDWLNGKEYKCKVSNKGLPSSIEKTISKAKGQPREPQVYTLPPSQEEMTKNQVSLTCLVKGFYPSDIAVEWESNGQPENNYKTTPPVLDSDGSFFLYSRLTVDKSRWQEGNVFSCSVMHEALHNHYTQKSLSLSLGK
- Fold induction at 20 nM; STAT3-Luc reporter, CTLL2/STAT3-Luc cells [2]: 1.37 fold
- Max fold induction; STAT3-Luc reporter, CTLL2/STAT3-Luc cells [2]: 27.5 fold

B3: Bivalent: IL12(p40-p35)-Fc (Fc fusion)
chain: MWELEKDVYVVEVDWTPDAPGETVNLTCDTPEEDDITWTSDQRHGVIGSGKTLTITVKEFLDAGQYTCHKGGETLSHSHLLLHKKENGIWSTEILKNFKNKTFLKCEAPNYSGRFTCSWLVQRNMDLKFNIKSSSSSPDSRAVTCGMASLSAEKVTLDQRDYEKYSVSCQEDVTCPTAEETLPIELALEARQQNKYENYSTSFFIRDIIKPDPPKNLQMKPLKNSQVEVSWEYPDSWSTPHSYFSLKFFVRIQRKKEKMKETEEGCNQKGAFLVEKTSTEVQCKGGNVCVQAQDRYYNSSCSKWACVPCRVRSGGGGSGGGGSGGGGSRVIPVSGPARCLSQSRNLLKTTDDMVKTAREKLKHYSCTAEDIDHEDITRDQTSTLKTCLPLELHKNESCLATRETSSTTRGSCLPPQKTSLMMTLCLGSIYEDLKMYQTEFQAINAALQNHNHQQIILDKGMLVAIDELMQSLNHNGETLRQKPPVGEADPYRVKMKLCILLHAFSTRVVTINRVMGYLSSAGGGGSGGGGSGGGGSESKYGPPCPPCPAPPVAGPSVFLFPPKPKDTLMISRTPEVTCVVVDVSQEDPEVQFNWYVDGVEVHNAKTKPREEQFNSTYRVVSVLTVLHQDWLNGKEYKCKVSNKGLPSSIEKTISKAKGQPREPQVYTLPPSQEEMTKNQVSLTCLVKGFYPSDIAVEWESNGQPENNYKTTPPVLDSDGSFFLYSRLTVDKSRWQEGNVFSCSVMHEALHNHYTQKSLSLSLGK
- EC50 (M); STAT3-Luc reporter, CTLL2/STAT3-Luc cells [1]: 1.16e-11 M
- Fold induction at 6.25 nM; STAT3-Luc reporter, CTLL2/STAT3-Luc cells [1]: 7.52 fold
- Max fold induction; STAT3-Luc reporter, CTLL2/STAT3-Luc cells [1]: 15.4 fold

B4: Bivalent: IL12*(p40*-p35*)-Fc (Fc fusion)
chain: B3 chain with C175S, C398S
- EC50 (M); STAT3-Luc reporter, CTLL2/STAT3-Luc cells [1]: 1.72e-11 M
- Fold induction at 6.25 nM; STAT3-Luc reporter, CTLL2/STAT3-Luc cells [1]: 7.01 fold
- Max fold induction; STAT3-Luc reporter, CTLL2/STAT3-Luc cells [1]: 8.48 fold

The next lines start with the values.

- EC50 (M); STAT3-Luc reporter, CTLL2/STAT3-Luc cells [1]: 6.47e-11 M
- Fold induction at 6.25 nM; STAT3-Luc reporter, CTLL2/STAT3-Luc cells [1]: 9.58 fold
- Max fold induction; STAT3-Luc reporter, CTLL2/STAT3-Luc cells [1]: 9.89 fold
B5: Monovalent: IL12(p35xp40)-Fc (Fc fusion)
chain 1: RVIPVSGPARCLSQSRNLLKTTDDMVKTAREKLKHYSCTAEDIDHEDITRDQTSTLKTCLPLELHKNESCLATRETSSTTRGSCLPPQKTSLMMTLCLGSIYEDLKMYQTEFQAINAALQNHNHQQIILDKGMLVAIDELMQSLNHNGETLRQKPPVGEADPYRVKMKLCILLHAFSTRVVTINRVMGYLSSAGGGGSGGGGSGGGGSESKYGPPCPPCPAPPVAGPSVFLFPPKPKDTLMISRTPEVTCVVVDVSQEDPEVQFNWYVDGVEVHNAKTKPREEQFNSTYRVVSVLTVLHQDWLNGKEYKCKVSNKGLPSSIEKTISKAKGQPREPQVYTLPPSQEEMTKNQVSLWCLVKGFYPSDIAVEWESNGQPENNYKTTPPVLDSDGSFFLYSRLTVDKSRWQEGNVFSCSVMHEALHNHYTQKSLSLSLGK
chain 2: MWELEKDVYVVEVDWTPDAPGETVNLTCDTPEEDDITWTSDQRHGVIGSGKTLTITVKEFLDAGQYTCHKGGETLSHSHLLLHKKENGIWSTEILKNFKNKTFLKCEAPNYSGRFTCSWLVQRNMDLKFNIKSSSSSPDSRAVTCGMASLSAEKVTLDQRDYEKYSVSCQEDVTCPTAEETLPIELALEARQQNKYENYSTSFFIRDIIKPDPPKNLQMKPLKNSQVEVSWEYPDSWSTPHSYFSLKFFVRIQRKKEKMKETEEGCNQKGAFLVEKTSTEVQCKGGNVCVQAQDRYYNSSCSKWACVPCRVRSGGGGSGGGGSGGGGSESKYGPPCPPCPAPPVAGPSVFLFPPKPKDTLMISRTPEVTCVVVDVSQEDPEVQFNWYVDGVEVHNAKTKPREEQFNSTYRVVSVLTVLHQDWLNGKEYKCKVSNKGLPSSIEKTISKAKGQPREPQVYTLPPSQEEMTKNQVSLSCAVKGFYPSDIAVEWESNGQPENNYKTTPPVLDSDGSFFLVSRLTVDKSRWQEGNVFSCSVMHEALHNRFTQKSLSLSPGK

- EC50 (M); STAT3-Luc reporter, CTLL2/STAT3-Luc cells [1]: 8.11e-11 M
- Fold induction at 6.25 nM; STAT3-Luc reporter, CTLL2/STAT3-Luc cells [1]: 8.93 fold
- Max fold induction; STAT3-Luc reporter, CTLL2/STAT3-Luc cells [1]: 9.62 fold
B6: Monovalent: IL12*(p35*xp40*)-Fc (Fc fusion)
chain 1: B5 chain 1 with C70S
chain 2: B5 chain 2 with C175S
